Assay: yeast display, Sf9 membrane polyspecificity reagent, FACS + sequencing; frameworks hold sequencing errors
Summary of the method: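 Nanobodies came from a synthetic yeast display library in Saccharomyces cerevisiae BJ5465, induced with galactose for 36–48 hours and stained for 1 hour at 4 °C with 10% biotinylated, detergent-solubilized Sf9 membrane reagent. Cells were enriched on streptavidin microbeads and then FACS-sorted, with low and high (top ~1%) gates set on anti-HA fluorescence for expression and streptavidin fluorescence for reagent binding. Each polyreactivity label reflects the gate a clone came from. Genes were amplified by colony PCR, sequenced by MiSeq 2 × 250 and filtered by CDR length.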

Sequence | polyreactivity (PSR sort gate)
QVQLVESGGGLVQAGGSLRLSCAASGIIFRVYAMGWYRQAPGKERELVAAITKGGGRTYYADSVKGRFTISRDIAKNTVYLQMNCLIPEDTAVYYCAARSSSRFEYWGQGTEVTVSS | high polyreactivity
QVQLVESGGGLVQAGGSLRLSCAASGIIFRWYTMGWFRQAPGKERELVAAITGRGGSTYYADSVKGRFTISRDNAKNTFYLQMNSLIPEDTAVYYCAAEGVRIGTRYDYWGQGTLVTVSS | high polyreactivity
QVQLVESGGGLVQAGGSLRLSCAASGIIFRWYTMGWYRQAPGKERELVAAISSGGSTYYADSVKGRFTISRDNAKNTVYLQMNSLKPEDTAVYYCAARYITTYAYGYWGQGTQVTVSS | high polyreactivity
QVQLVESGGGLVQAGGSLRLSCAASGIIFRWYTMGWYRQAPGKERELVAAISTSTGSTYYADSVKGRFTISRDNAKNTVYLQMNSLKPEDTAVYYCAADYAYWNYESYYWGQGTQVTVSS | high polyreactivity
QVQLVESGGGLVQAGGSLRLSCAASGIIFRYAMGWYRQAPGKERELVARITVGSTYYADSVKGRFTISRDNAKNTVYLQMNSLKPEDTAVYYCAARVQHYLATDDYWGQGTQVTVSS | low polyreactivity
QVQLVESGGGLVQAGGSLRLSCAASGIIFRYYAMGWYRQAPGKERELVAAISSSTGNTYYADSVKGRFTISRDNAKNTVYLQMNSLKPEDTAVYYCAARTRQISIVGYNYWGQGTQVTVSS | high polyreactivity
QVQLVESGGGLVQAGGSLRLSCAASGIIFRYYAMGWYRQPPGKERELVASISRGGSTYYADSVKGRFTISRDNAKNTVYLQMNSLKPEDTAVYYCAADVYPVYLYGYEYWGQGTQVTVSS | high polyreactivity
QVQLVESGGGLVQAGGSLRLSCAASGIIFRYYTMGWYRQAPGKEREFVAAITGSSGSTYADSVKGRFTISRDNAKNTVYLQMNSLKPEDTAVYYCNADSYSIWVYGEYDYWGQGTQVTVSS | high polyreactivity
QVQLVESGGGLVQAGGSLRLSCAASGIIFSAYAMGWYRQAPGKERELVAAISSGGSTNYADSVKGRFTISRDNAKNTVYLQMNSLKPEDTAVYYCNAGERDVPNSYVAYREDYWGQGTQVTVSS | low polyreactivity
QVQLVESGGGLVQAGGSLRLSCAASGIIFSDYAMGWYRQAPGKERELVAAITGGGSTYYADSVKGRFTISRDNAKKTVDLQMNSLKPEDTAVFYCNADWARLWIRSTEVDYWGQGSQVTVSS | low polyreactivity
QVQLVESGGGLVQAGGSLRLSCAASGIIFSGYAMGWYRQAPGKERELVASIRSGSNTYYADSVKGRFTISRDNAKNTVYLQMNSLKPEDTAVYYCAARVVPATFRFIRYPHPYYYWGQGTQVTVSS | low polyreactivity
QVQLVESGGGLVQAGGSLRLSCAASGIIFSHNVMGWYRQAPGKERELVAAITYSGGSTYYADSVKGRFTISRDNAKNTVYLLMNSLKPEDTAVYYCNALGVSRRDYDYWGQGTQVTVSS | low polyreactivity
QVQLVESGGGLVQAGGSLRLSCAASGIIFSNYAMGWYRQAPGKERDLVAAITRSGGRTYYADSVKGRFTISRDNAKNTVYLQMNSLKPEDTAVYYCAATGRSGVLSSYYYWGQGTQVTVSS | high polyreactivity
QVQLVESGGGLVQAGGSLRLSCAASGIIFSPYAMGLYRQAPGKERELVAAISYSGGSTYYADSVKGRFTISRDNAKNTVYLQMNSLKPEDTAVYYCAVVYSYYLAVLGYCDYDYWGQGTQVTVSS | low polyreactivity
QVQLVESGGGLVQAGGSLRLSCAASGIIFSPYAMGWYRQAPGNERELVAAISYSGGSTYYADSVKGRFTISRDNAKNTVYLQMNSLKPEDTAVYYCAVVYSYYLAVLGYWDYDYWGQGTQVTVSS | low polyreactivity
QVQLVESGGGLVQAGGSLRLSCAASGIIFSSNAMGWYRQAPGKERELVAAISRRGGSTYYADSVKGRFTISRDNAKNTVYLQMNSLKPEDTAVYYCNALLYNGAGYDYWGQGSQVTVSS | high polyreactivity
QVQLVESGGGLVQAGGSLRLSCAASGIIFSSNAMGWYTQAPGKERELVAAISRRGGSTYYADSVKGRFTISRDNAKNSVYLQMNSLKPEDTAVYYCNALLYNGAGYDYWGQGTQVTVSS | high polyreactivity
QVQLVESGGGLVQAGGSLRLSCAASGIIFSSYAMGWYRQAPGKERELVAAITYNGGRTYYADSVKGRFTISRDNAKNTVYLQMNSLKPEDTAVYYCAARTYGGNVLRLDYWGQGTQVTVSS | high polyreactivity
QVQLVESGGGLVQAGGSLRLSCAASGIIFSWYAMGWYRQAPGKEREFVAAISKSGGRTYYADSVKGRFTISRDNAKNTVYLQMNSLKPEDTAVYYFATGISRDYIYIILRYDYWGQGTQVTVSS | low polyreactivity
QVQLVESGGGLVQAGGSLRLSCAASGIIFSYNAMGWYRQAPGKERELVAANNSSGGSTNYADSVKGRFTISRDNAKNTVYLQMNSLKPEDTAVYYCAARDATYYGVWRYYGIDDYWGQGTQVTVSS | low polyreactivity
QVQLVESGGGLVQAGGSLRLSCAASGIIFSYYALGWYRQAPGKERELVAAITRGGGRTYYADSVKGRFTISRDNAKNTVSLQMNSLKPEDTAVYYCNALSRYVENDYWGQGTQVTVSS | high polyreactivity

Sequence | polyreactivity (PSR sort gate)
QVQLVESGGGLVQAGGSLRLSCAASGIIFSYYAMGWYRQAPGKERELVAAISSGGSTNYADSVKGRFTISRDNAKNTVYLQMNSLKPEDTAVYYCAPLYRDYDWIFEYWGQGTQVTVSS | low polyreactivity
QVQLVESGGGLVQAGGSLRLSCAASGIIFSYYAMGWYRQEPGKERELVAAIDSGGSTYYADSVKGRFTISRDNAKNTVYLQMNSLKPEDTAVYYCNADTARGVPVFPHDYWGQGTQVTVSS | low polyreactivity
QVQLVESGGGLVQAGGSLRLSCAASGIIFTDYAMGWYRQAPGKERELVAAISSGGGSTYYADSVKGRFTISRDNAKNTVYLQMNSLKPEDTAVYYCAAEGYLISGAGDYLYDYYWGQGTQVTVSS | high polyreactivity
QVQLVESGGGLVQAGGSLRLSCAASGIIFTINAMGWYRQAPGKERELVAAISWGTGTTYYADSVKGRFTISRDNAKNTVYLQINSLKPEDTAVYYCAADGYDTYGYWGQGTQVTVSS | low polyreactivity
QVQLVESGGGLVQAGGSLRLSCAASGIIFTINAMGWYRQAPGKERELVARISRSVGSTTYADSVKGRFTISRDNAKNTVYLQMNSLKPEDTAVYYCAAQPYGYSYHYHRPWGLDYWGQGTQVTVSS | low polyreactivity
QVQLVESGGGLVQAGGSLRLSCAASGIIFTIYTMGWYRQAPGKERELVAAITRSGGSTYYADSVKGRFTISRDNAKNTVYLQMNSLKPEDTAVYYCAAEWQYPDGDDVGSWRYYYWGQGTQVTVSS | high polyreactivity
QVQLVESGGGLVQAGGSLRLSCAASGIIFTTYDMGWYRQAPGKERELVAAISSSTTNTYYADSVKGRFTISRDNAKNTVYLQMNSLKPEDTAVYYCAADGYSLDRYEYWGQGTQVTVSS | low polyreactivity
QVQLVESGGGLVQAGGSLRLSCAASGIIFTYAMGWYRPAPGKERELVAAIDWRGGRTYYADSVKGRFTISRDNAKNTVYLQMNSLKPEDTSVYYCGARLPGGTYYWGQGTQVTVSS | high polyreactivity
QVQLVESGGGLVQAGGSLRLSCAASGIIFTYAMGWYRQAPGKERELVAAIDWRGGRTYYADSVKGRFTISRDNAKNNVYLQMNSLKPEDTAVFFCAARLPGGTYYWGQGTQVTVSS | high polyreactivity
QVQLVESGGGLVQAGGSLRLSCAASGIIFVDYAMGWYRQAPGKEREFVAAITWSGGSTRYADSVKGRFTISRDNAKNTVYLQMNSLKPEDTAVYYCAALGYNVSSRGYYYWGQGTQVTVSS | low polyreactivity
QVQLVESGGGLVQAGGSLRLSCAASGIIFVENPMGWYRQAPGKERELVATITSGDTTNYADSVKGRFTISRDNAKNTVYLHMNSLKAEDTAVYYCAAERYEDFTEYDYWGQGTQVTVSS | low polyreactivity
QVQLVESGGGLVQAGGSLRLSCAASGIIFVRNARGWSRQAPGKERELVAAITGRGVSTYYADSVKGRFTISRDNAKNTVYLQMNSLNQEDTAVYYGAARYSSRGTYPRRYDYWGQGTQVTVSS | high polyreactivity
QVQLVESGGGLVQAGGSLRLSCAASGIIFVYYAMGWYRQAPGKERELVAAINWSGGSTYYADSVKGRFTISRDNAKNTVYLQMNSLKPEDTAVYYCAASSYITSDQRFYYWGQGTQVTVSS | high polyreactivity
QVQLVESGGGLVQAGGSLRLSCAASGIIFVYYDMGWYRQAPGKERELVASISRGGSTYYADSVKGRFTISRDNAKNTVYLQMNSLKPEDTAVYYCAAVPSYLGYWGQGTQVTVSS | high polyreactivity
QVQLVESGGGLVQAGGSLRLSCAASGIIFWKYAMGWYRQAPGKERELVAAISSRGGSTYYADSVKGRLTISRDNAKNTVYLQMNSLKPEDTAVYYCAGEDWYYGFDYWRQGTQVTVSS | high polyreactivity
QVQLVESGGGLVQAGGSLRLSCAASGIIFWYNARGWYRQAPGKERELVASISTGGRTYYADSVKGRFTISRDNAKNTVYLQMNSLKPEDTAVYYCAAASRVGFLYYYWGQGTQVTVSS | low polyreactivity
QVQLVESGGGLVQAGGSLRLSCAASGIIFWYYAMGWYRQAPGKERELVAAISSGGSTTYADSVKGRFTISRDNAKNTVYLQMNSLKPEDTAVYYCAAVWLSLFKVWVDTHEYDYWGQGTQVTVSS | low polyreactivity
QVQLVESGGGLVQAGGSLRLSCAASGIIFWYYAMGWYRQAPGKERELVASIDWSGGSTYYADSVKGRFTISRDNAKNTVYLQMKSLKPEDTAVYDCNAGSDIYWSAATYGYWGQGTQVTVSS | high polyreactivity
QVQLVESGGGLVQAGGSLRLSCAASGIIFYDNAMGWYRKAPGKERELVATITRSGDSTYYADSVKGRFTISRDNAKNTVYLQMNSLKPEDTAVYYCAKDTYGVLAYFQVSREYWGQGTQVTVSS | low polyreactivity
QVQLVESGGGLVQAGGSLRLSCAASGIIFYFYAMGWSRQAPGKERELVAAISSGGGSTYYADSVKGRFTISRDNAKNTVYLQMNSLKPEDTAVYYCAAKIGRNFDWGQGTQVTVSS | high polyreactivity
